Reference: patent US20230002481A1 (Chugai, published 2023)

Target: T1, recombinant human C1r2s2 tetramer (human, UniProt P09871 16-688; P00736 18-705)
T1 construct: Heterotetramer of two C1r and two C1s chains, co-expressed in FreeStyle293-F cells; also called human C1r2s2s
T1 chain 1: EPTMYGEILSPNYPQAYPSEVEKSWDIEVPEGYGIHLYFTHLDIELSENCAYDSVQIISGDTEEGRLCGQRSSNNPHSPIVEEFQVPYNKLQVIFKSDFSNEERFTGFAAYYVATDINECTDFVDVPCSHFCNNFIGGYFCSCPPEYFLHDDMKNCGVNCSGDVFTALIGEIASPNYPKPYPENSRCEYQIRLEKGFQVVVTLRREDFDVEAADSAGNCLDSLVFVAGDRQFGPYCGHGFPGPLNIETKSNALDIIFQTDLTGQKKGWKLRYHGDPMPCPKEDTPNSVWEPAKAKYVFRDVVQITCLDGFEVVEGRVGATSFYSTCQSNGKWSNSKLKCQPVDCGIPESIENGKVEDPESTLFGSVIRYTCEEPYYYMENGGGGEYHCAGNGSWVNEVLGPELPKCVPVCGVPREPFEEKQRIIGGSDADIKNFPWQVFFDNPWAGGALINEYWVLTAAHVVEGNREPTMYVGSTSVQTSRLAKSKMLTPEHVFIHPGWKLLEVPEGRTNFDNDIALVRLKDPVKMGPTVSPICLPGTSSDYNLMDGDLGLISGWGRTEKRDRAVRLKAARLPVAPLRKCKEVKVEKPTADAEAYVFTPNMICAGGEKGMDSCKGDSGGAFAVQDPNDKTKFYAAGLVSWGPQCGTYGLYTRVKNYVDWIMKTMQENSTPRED
T1 chain 2: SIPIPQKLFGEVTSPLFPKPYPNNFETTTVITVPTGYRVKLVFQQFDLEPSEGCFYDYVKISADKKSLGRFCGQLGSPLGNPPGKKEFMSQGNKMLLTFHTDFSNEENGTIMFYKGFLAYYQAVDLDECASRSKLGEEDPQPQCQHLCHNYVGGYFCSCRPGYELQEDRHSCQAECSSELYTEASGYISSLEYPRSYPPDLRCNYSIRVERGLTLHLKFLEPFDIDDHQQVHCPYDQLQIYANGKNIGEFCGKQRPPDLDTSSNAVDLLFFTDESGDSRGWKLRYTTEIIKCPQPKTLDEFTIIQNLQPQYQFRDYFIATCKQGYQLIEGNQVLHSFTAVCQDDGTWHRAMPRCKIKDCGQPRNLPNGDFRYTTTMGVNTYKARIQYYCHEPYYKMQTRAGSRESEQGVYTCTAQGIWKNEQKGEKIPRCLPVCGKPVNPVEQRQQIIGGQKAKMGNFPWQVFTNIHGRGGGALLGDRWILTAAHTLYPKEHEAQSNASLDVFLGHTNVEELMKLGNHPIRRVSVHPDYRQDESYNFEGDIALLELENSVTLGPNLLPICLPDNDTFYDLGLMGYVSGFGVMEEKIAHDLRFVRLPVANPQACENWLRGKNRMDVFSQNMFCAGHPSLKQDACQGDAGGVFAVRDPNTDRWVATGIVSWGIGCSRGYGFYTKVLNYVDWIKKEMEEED
Test: SPR (Biacore), antibody captured on ProA/G, antigen as analyte, 37 C, pH7.4, 1.2 mM CaCl2; pH 7.4
Method: The kinetic parameters of anti-C1s antibodies against recombinant human C1s (as described in PCT/JP2018/042054), human C1r2s2, and cyno C1r2s2 His/Flag (also referred as cyno C1r2s2 in the Table and Figures) were assessed at pH7.4 and pH5.8, at 37 degrees C. using BIACORE (registered trademark) T200 instrument (GE Healthcare) or BIACORE 4000 (GE Healthcare). ProAG (Pierce) was immobilized onto a CM4 sensorchip using amine coupling kit (GE Healthcare) according to the recommended settings by GE Healthcare. Antibodies and analytes were diluted into the respective running buffers, ACES pH7.4 and pH5.8 (20 mM ACES, 150 mM NaCl, 1.2 mM CaCl₂, 1 mg/ml BSA, 1 mg/ml CMD, 0.05% Tween 20, 0.005 w/v % NaN₃). Each antibody was captured onto the sensor surface by ProA/G. Antibody capture levels were typically 100-200 resonance units (RU). Then, recombinant C1s was injected at concentrations of 25 and 50 nM followed by dissociation at pH7.4 and pH5.8. The surface was regenerated using 10 mM Glycine-HCl, pH1.5. Kinetic parameters at neutral pH conditions and acidic conditions were determined by fitting the sensorgrams with 1:1 binding model using BIACORE (registered trademark) T200 Evaluation software, version 2.0 (GE Healthcare) or BIACORE 4000 Evaluation software. The dissociation rate at pH5.8 (after dissociation at pH7.4, indicated as pH5.8* in TABLE 2) was determined by processing and fitting data using Scrubber 2.0 (BioLogic Software) curve fitting software. The association rate (ka), dissociation rate (kd), binding affinity (KD) at pH7.4 and pH5.8 condition, and dissociation rate (kd) at pH5.8* condition of the antibodies are listed in TABLE 2. Some kinetic parameters of COS0098pHv1 in acidic condition were not correctly calculated because of its weak binding response.
Also, to observe the cross-reactivity of anti-C1s antibodies against human C1r2s2 and cyno C1r2s2 (cyno C1r2s2 His/Flag), BIACORE (registered trademark) kinetics analysis was performed.

B1: COS0098bb (antibody, V domains shown)
VH: QSVEESGGRLVTPGTPLTLTCTVSGFSLTKYTVSWVRQAPGKGLEWIGIINTGGSAYYATWAKGRFTFSKTSTTVDLQITSPTTEDTATYFCARGNGDTDYTNLWGPGTLVTVSS
VL: QVLTQTPSSVSEPVGGTVTINCQASENIYSALAWYQQKPGQPPKLLIYGASNLESGVPSRFKGSGSGTQFTLTISDLECADAATYYCQQYYFTSSTFGGGTKVEIK
notes: Anti-C1s rabbit antibody, parent of COS0098pHv1; the antibody was captured by ProA/G; also called anti-C1s antibody COS0098bb
Question: With B1 as the binder, how does the Kd read?
Answer: The Kd was 0.213 nM.

Question: What about the koff of the same binder?
Answer: The koff was 0.0002 s⁻¹.

Question: And the kon?
Answer: The kon was 936000 M⁻¹ s⁻¹.
